T1: TCR gamma/delta constant region (TRGDC) (human, UniProt P0CF51 1-173; B7Z8K6 1-153)
T1 chain (looked up) 1: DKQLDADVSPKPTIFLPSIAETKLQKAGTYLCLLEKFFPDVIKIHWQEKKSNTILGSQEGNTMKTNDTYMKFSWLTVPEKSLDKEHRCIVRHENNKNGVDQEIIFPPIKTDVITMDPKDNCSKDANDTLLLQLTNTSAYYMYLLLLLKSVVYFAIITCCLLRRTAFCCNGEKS
T1 chain (looked up) 2: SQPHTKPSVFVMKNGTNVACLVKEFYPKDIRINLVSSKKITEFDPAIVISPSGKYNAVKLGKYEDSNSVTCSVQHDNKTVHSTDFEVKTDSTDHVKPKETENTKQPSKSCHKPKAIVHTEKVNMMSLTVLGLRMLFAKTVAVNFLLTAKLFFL

B1: VG9B125 (antibody, human IgG1, kappa, V domains shown)
VH: EVQLVESGGTLVQPGGSLRLSCAVSGFTFSSYDMNWVRQAPGKGLEWVSYISSSSTAKYYADSVKGRFTISRDNAKNSLYLQMNSLWDEDTAVYYCAREDIVVVTPILQHWGQGTTVTVSS
VL: EIVMTQSPATLSLSPGERAILSCRASQSVSKDLAWYQQKPGQAPRLLIYDASNRATGIPARISGSGSGTDFTLTISSLEPEDFAVYYCQQRINWPLFTFGPGTKVEIKR
B2: VG9B112 (antibody, human IgG1, kappa, V domains shown)
VH: QVQLQQSGPGLVKPSQTLSLTCAISGDSVSSNSAAWNWIRQSPSRGLEWLGGTYYRSKWFNNYAVSVKSRITINPDTSTNQFSLQLNSVTPADTAVYYCARGEWGLRDAFDIWGQGTMVTVSS
VL: DIQMTQSPSFLSASVGDRVIITCRASQGIHSYLAWYQQKPGKVPKLLIYVASTLQSGVPSRFSGSGSGTEFTLTISSLQPEDFATYYCQQLNSYPWTFGQGTKLEIKR
B3: VG9B386 (antibody, human IgG1, kappa, V domains shown)
VH: EVQLVESGGGLVKPGGSLRLSCAASGFTFSSYSMIWVRQAPGKGLEWVSSIGSSSTYIYYADSVRGRFTISRDNAKTSLYLQMNSLRAEDTAMYFCARDGETGGFDYWGQGILVTVSS
VL: EIVMTQSPGTLSLSPGERATLSCRASQSISRSYLAWYQQKPGQPPRLLIYGPSNRATGIPDRFSASGSGTDFTLTNSRLEPEDFAVYYCQQYGSLPLTFGGGTKVEIKR
B4: VG9B387 (antibody, human IgG1, lambda, V domains shown)
VH: EVQLVESGAEVKKPGASVKVSCKASGFTFTGYYLQWVRQAPGQGLEWMGWINPNSGYTDYAQRFQDRVTMTRDTSINTAYMELSRLRSDDTAVYYCARLDDAFDVWGQGTMVTVSS
VL: SYELTQDPAVSVALGQTVRITCQGDSLRNYYAIWYQQKPGQAPVLVIFGKNNRPSGIPDRFSGSSSGTTASLTITGTQAEDEADYYCNSRDSSGNHWVFGGGTKLTVLG
B5: VG9B64 (antibody, human IgG1, kappa, V domains shown)
VH: QVQLVESGPTLVKPTQTLTLTCTFSGFSLSISGVSVGWIRQPPGKALEWLALIYWNDDKRYSPSLQSRVTITKDTSKNQVVLTVTNMDSVDTATYYCVHSGQWLEGDAFDIWGQGTMVTVSS
VL: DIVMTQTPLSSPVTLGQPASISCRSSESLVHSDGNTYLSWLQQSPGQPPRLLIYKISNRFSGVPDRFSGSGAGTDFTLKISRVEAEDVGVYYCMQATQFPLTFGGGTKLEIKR
B6: VG9B44 (antibody, human IgG1, kappa, V domains shown)
VH: QVQLQQSGPGLVKPSQTLSLTCAISGDSVSSNSAAWNWIRQSPSRGLEWLGRTYYRSKWYNDYPISVKSRISINPDTSKNQFSLQLNSVTPEDTAVYYCARESGSYYTDGFDIWGQGTMVTVSS
VL: B2 VL with I20T, H30S, V43A, V50A, Q90E, L91F, W96Y
B7: VG9B152 (antibody, human IgG1, lambda, V domains shown)
VH: EVQLVESGGGLVRPGGSLRLSCEASGFTFSSYSMIWVRQAPGKGLEWVSSISSSSDYIYNADSVKGRFTISRDNAKNSLYLQMNSLRAEDTAVYYCARDWELLGFDCWGQGTTVTVSS
VL: SYELMQPPSVSVSPGQTASITCSGDKLGDKYACWYQQKPGQSPVLVIYQHNKRPSGIPERFSGSNSGKTATLTISGTQAMDEADYYCQAWDSTTVVFGGGTKLTVLG
B8: VG9B36 (antibody, human IgG1, kappa, V domains shown)
VH: QVQLVESGGGLVKPGGSLRLSCASSGFTFSSYGMYWVRQAPGKGLEWVSSISTGSSYIYYADSVKGRFTISRDNAKNSLYLQMNSLRAEDTAVYYCARDKGLAVTGYIMDVWGQGTTVTVSS
VL: EIVLTQSPSSLSASVGDRVTITCQASQDISNYLNWYQQKPGKAPKLLIYDASNLETGVPSRFSGSGSGTDFTFTISSLQPEDIAIYYCQQYDNLPMYTFGQGTKVEIKR
B9: VG9B67 (antibody, human IgG1, kappa, V domains shown)
VH: EVQLVESGGGLVKPGGSLRLSCAASGFTFSSYTMNWVRQAPGKGLEWVSSISSSSSYIDYAESVKGRFTISRDNAKNSLYLQMNSLRAEDTAVYYCARDGDILATIRGSFDYWGQGTTVTVSS
VL: DIVMTQTPLSLPVTPGEPASISCRSSQSLLDSDAGNTYLDWYLQKPGQSPQLLIYTLSYRASGVPDRFSGSGSGTDFTLKISRVEAEDVAIYYCMQRIEFPITFGQGTKVEIKR
B10: VG9B127 (antibody, human IgG1, kappa, V domains shown)
VH: B9 VH with E1Q, A23T, S30G, S31A, Y60F, N84I, L103V, A104S, T117A, T118L
VL: B9 VL with D1E, T7S, A34D, A90G
B11: VG9B191 (antibody, human IgG1, lambda, V domains shown)
VH: EVQLVQSGGGLVKPGGSLRLSCAASGFTFSRYSMNWVRQAPGKGLEGVSSISSSSSYIYYADSVKGRFTISRDNAKNSLYLQMNSLRAEDTAVYYCARDGPTVNWDYYFDLWGRGTLVTVSS
VL: QSVLTQPPSVSAAPGQKVTISCSGSSSNIGNNYVSWYQQLPGTAPKLLIYDNNKRPSGIPDRFSGSKSGTSATLGITGLQTGDEADYYCGTWDSSLSTSVVFGGGTKLTVLG
B12: VG9B162 (antibody, human IgG1, lambda, V domains shown)
VH: QVQLVESGAEVTKPGASVKVSCKASGYTFTGDYMHWVRQAPGQGLEWMGWINPNSGYTNYAQKFQGRVTMTRDTSISTAYMELSRLRSDDTAVYYCAREGDAFDVWGQGTMVTVSS
VL: QLVLTQSSSASGSPGQSVTISCTGTSSDVGGYNYVSWYQQHPGKAPKLMIYEVSKRPSGVPDRFSGSKSGNTASLTVSGLQAEDEADYYCNSYAGSNNFEVFGGGTKLTVLG
B13: VG9B33 (antibody, human IgG1, kappa, V domains shown)
VH: EVQLVESGGGLVKPGGSLRLSCAASGFTFSSYNMNWVRQAPGKGLEWVSSISTSSSYIYYADSVKGRFTISRDNAKNSLYLQMNGLRAEDTAVYYCARDTSVTKYPDTFDIWGQGTMVTVSS
VL: DIVMTQSPSSLSASVGDRVTITCRASQDINNYLAWFQQKPGKVPNLLIYGASTLQSGVPSRFTGSGSGTDFTLTISSLQPEDVATYYCQKYNSAPFTFGPGTKVDIKR
B14: VG9B402 (antibody, human IgG1, kappa)
heavy: not shown
light: DIQMTQSPSSVSASVGDRVTITCRASQGINSWLAWYQQKPGNAPKLLIYAASSLQSGVPSRFSGIGSGTDFIFTISSLQPEDFASYYCQQANSFPWTFGQGTKVDIKRTVAAPSVFIFPPSDEQLKSGTASVVCLLNNFYPREAKVQWKVDNALQSGNSQESVTEQDSKDSTYSLSSTLTLSKADYEKHKVYACEVTHQGLSSPVTKSFNRGEC
B15: VG9B137 (antibody, human IgG1, kappa, V domains shown)
VH: EVQLVESGGGLVKPGGSLRLSCAAFGITFSSYSMDWVRQAPGRGLEWVSSIGSSSSYIFYADSVKGRFTISRDNAKNSLYLQMNSLRAEDTAVYYCATSYSWNYGGAFDIWGQGTMVTVSS
VL: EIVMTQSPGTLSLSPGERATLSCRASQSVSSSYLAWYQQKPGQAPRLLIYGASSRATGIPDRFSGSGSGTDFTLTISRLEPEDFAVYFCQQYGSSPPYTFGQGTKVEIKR
B16: VG9B403 (antibody, human IgG1, kappa)
heavy: not shown
light: DIVMTQSPGTLSLSPGDRATLSCRASQSVASSYLAWYQQKPGQSPRLLIYGASSRATGIPDRFSGSGSGTDFTLTISRLEPEDFAVYYCQQYGSSPPYTFGQGTKVEIKRTVAAPSVFIFPPSDEQLKSGTASVVCLLNNFYPREAKVQWKVDNALQSGNSQESVTEQDSKDSTYSLSSTLTLSKADYEKHKVYACEVTHQGLSSPVTKSFNRGEC

Positions count from the first letter of the chain named.

One assay has as its target T1, TCR gamma/delta constant region (TRGDC). The experiment in a line: cell-based or functional assay.
In the case of B1, the “CD25+ (Vg9+ cells), flow staining” value came out at 24.8%; the “CD71+ (Vg9+ cells), flow staining” value was determined as 70.8%; the “Granzyme B; Luninex (supernatant)” value turned out to be 3760; the “IFNγ; Luninex (supernatant)” value is 1490. In addition, the “IL6; Luninex (supernatant)” value stood at 587; the “TNFα; Luninex (supernatant)” value is 959; the “Vg9 T cell %, flow staining” value was 12.4%.
Regarding B2, the “CD25+ (Vg9+ cells), flow staining” value was 23.4%; the “CD71+ (Vg9+ cells), flow staining” value is 91.8%; the “Granzyme B; Luninex (supernatant)” value was 1140; the “IFNγ; Luninex (supernatant)” value came to 461. Also, the “IL6; Luninex (supernatant)” value is 256; the “TNFα; Luninex (supernatant)” value is 1260; the “Vg9 T cell %, flow staining” value stood at 7.9%.
Take B3: the “CD25+ (Vg9+ cells), flow staining” value turned out to be 29.7%; the “CD71+ (Vg9+ cells), flow staining” value was 97%; the “Granzyme B; Luninex (supernatant)” value is 2960; the “IFNγ; Luninex (supernatant)” value was found to be 846. Also, the “IL6; Luninex (supernatant)” value was 228; the “TNFα; Luninex (supernatant)” value amounted to 89; the “Vg9 T cell %, flow staining” value stood at 8.5%.
On to B4, for which the “CD25+ (Vg9+ cells), flow staining” value is 24.7%; the “CD71+ (Vg9+ cells), flow staining” value stood at 89.7%; the “Granzyme B; Luninex (supernatant)” value is 1470; the “IFNγ; Luninex (supernatant)” value turned out to be 746. The “IL6; Luninex (supernatant)” value came to 5200; the “TNFα; Luninex (supernatant)” value amounted to 135; the “Vg9 T cell %, flow staining” value amounted to 5.5%.

Another assay addresses T2, γδ T cell receptor on human γδ T cells (human).
T2 construct: Mixed population of primary cells; also called AG000003021 (γδ T cells)
Put plainly: flow cytometry, dose-response binding at 37° C. on human γδ T cells. As for the experimental part:
Binding of antibodies to human γδ T cells or SKW cell lines expressing Vγ9/Vδ2, Vγ9/Vδ2 or Vγ5/Vδ2 was carried out by flow cytometry. Briefly, the cells were centrifuged at 300×g for 5 minutes and the pellet was resuspended in 34 ml fresh media (in RPMI+10% FBS). 50 μL of the cells were then plated (44K cells/well) into assay plates. Samples were incubated for one hour at 37° C. in tissue culture (TC) incubator followed by wash steps by adding 100 μl FACS staining buffer. Secondary detention antibodies (A647 conjugated anti-human IgG Fc specific antibody (2 μg/mL) along with AF488 anti mouse CD3, clone OKT3 at 1 ug/mL) were added at 50 μL/well to appropriate wells according to the plate map. After incubating for 60 minutes at 37° C. in the TC incubator, cells were again washed as described above. This is followed by resuspension in 20 μL/well running buffer containing 1:1000 dilution of Sytox blue dead cell stain and the plates were run on iQue Screener.
Gating and data analysis: Human anti-human Vγ9 antibody (VG9B2 mAb at 10 nM) was used to mark the gating of positive population. All cells were first gated for singlets on SCS-A vs. SCS-H dot plot, live/dead followed by CD3 positive population, and this subset of CD3 positive population was gated for Vγ9 positive binding using positive control mAb. Cells were also assessed for cell binding of control mAbs by RL1 (A647) Geomeans from the live cell population. Advanced metrics were used and normalization metrics were chosen to calculate fold over background wells containing secondary antibody alone (designated as ‘background’ within ForeCyt settings).
For orientation: In flow cytometry, cells or beads pass a laser one at a time.
B5: the “Max. Activity” value was 1690 fold over background.
Same read-out and setting: as for B6, the figure is 2320 fold over background; as for B7, 1850 fold over background.
The same measure, in the same setting: in the case of B8 it was 2410 fold over background; in that of B9, 2270 fold over background; in that of B10, 2230 fold over background.
Consider B11, for which the “Max. Activity” value was 2370 fold over background.
Still for that read-out and setting: as for B12, the figure is 1860 fold over background.
The same measure, in the same setting: in the case of B13 it was 2090 fold over background; in that of B14, 2250 fold over background.
Still for that read-out and setting: in the case of B15 it was 2200 fold over background.
For B16, the “Max. Activity” value was determined as 2390 fold over background.
